Laboratory results from PMC11088181, “Monocytes release cystatin F dimer to associate with Aβ and aggravate amyloid pathology and cognitive deficits in Alzheimer’s disease” (Journal of Neuroinflammation, 2024).

Target: the molecule itself
Test: native gel or EMSA; nondenaturing gel (loading buffer without DTT) and western blot with anti-cystatin F; plasma diluted in PBS, or cultured monocytes

Row | Protein | stoichiometry N
1 | cystatin F in human plasma (natural protein, human (endogenous in plasma), UniProt O76096 20-145, looked up, cystatin F, secreted form in plasma; also called secreted cystatin F; cystatin F dimer; source: endogenous, human plasma (AD patients and controls)) GPSPDTCSQDLNSRVKPGFPKTIKTNDPGVLQAARYSVEKFNNCTNDMFLFKESRITRALVQIVKGLKYMLEVEIGRTTCKKNQHLRLDDCDFQTNHTLKQTLSCYSEVWVVPWLQHFEVPVLRCH | 2
2 | native cystatin F in cultured monocytes (natural protein, UniProt O76096 20-145, looked up, cystatin F of cultured monocytes; also called intracellular cystatin F protein; extracellular proteins; source: endogenous, cultured monocytes (intracellular and extracellular)) GPSPDTCSQDLNSRVKPGFPKTIKTNDPGVLQAARYSVEKFNNCTNDMFLFKESRITRALVQIVKGLKYMLEVEIGRTTCKKNQHLRLDDCDFQTNHTLKQTLSCYSEVWVVPWLQHFEVPVLRCH | 2
